# Source: the RNAGym collection of RNA variant scans (doi:10.1073/pnas.2313332121)
# B1: TPR t1 (parent)
# chain: GACCAAUCUGCCCUCAGAGCUCGAGAACAUCUUCGGAUGCAGAGGAGGCAGGCUUCGGUGGCGCGAUAGCGCCAACGUCCUCAACCUCCAAUGCAUCCCACCACAUGAUGAUGCCUGAAGAGCCUUGGUUUUUUG
# Variants of: B1
# Assay: polymerase ribozyme fitness, log enrichment relative to wild type (log ratio); higher = more active; in vitro selection for triplet polymerase activity
# Outline: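 In triplicate, a single round of in vitro selection was run on each mutant library, PCR-built and transcribed, covering one subunit of a heterodimeric triplet polymerase ribozyme. Frozen incubation at −7 °C followed annealing with a biotinylated primer, partner subunit and triplets, and extended constructs were then gel-excised, streptavidin-captured and taken through RT-PCR. Fitness is the logarithm of genotype enrichment over wild-type enrichment, from inverse-variance-weighted replicate averages of Illumina-sequenced inputs and outputs. […] only genotypes with ≥10 input reads and ≥1 read per output were kept.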
row,Variant,polymerase ribozyme fitness (log ratio)
1,C34A G71U,-2.95
2,G113A U131A,-0.84
3,C62A C72U A75C C85A U129C,-2.55
4,U30G A43U G45U G47A C49A C73A U106A A119G,-3.78
5,C97U C104A,-2.32
6,C3U C40U G117U,-3.25
7,C4G C72G,-1.74
8,C34G G44U C62U G77A G110C,-6.64
9,A2C A5U G52U C62A,-4.11
10,C13G U32C U78C,-2.51
11,C15A A29U G69A G120C,-1.85
12,A46U G107U,-5.66
13,C13A C49A G71A,-1.76
14,U78G C97U U116C A121U U131A,0.0734
15,G63C A108U A121U G122A,-7.45
16,C62A U125G,-1.43
17,C40U G61U C86G,-2.87
18,U7A G35A U78G,-4.41
19,G35A A108U G120C,-5.76
20,A5G G71A,-0.188
21,C8A G48C,-0.457
22,U59C G63A G69U,-5.13
23,G10C C49U C94U,-1.58
24,C11G C73U C85A A111G,-0.304

row,Variant,polymerase ribozyme fitness (log ratio)
1,C40U C80U C99U C124U,-2.92
2,A90U U106G,-4.63
3,U32C C40G G57U G117C G120A,-6.56
4,C8A C64G C72U A121G,-6.31
5,A5C A46U,-1.95
6,A6C C53A G69C G120A,-1.04
7,A2C A46C U55A C64G A84U,-7.2
8,U81C C124A,0.431
9,G51C C56A G93A,-6.3
10,C49A C73A C89U A105U,-3.83
11,G52C C72G C104U,-0.739
12,C11G A16U A24G G47C C72A A111C,-7.64
13,C8G C72A,0.366
14,U14G G47C C85G G117A,-5.3
15,C13G G71C U125A G128C,-3.83
16,A50U C82U A119U,-2.14
17,C11A G39A U54A C72A,-1.51
18,C86G U116A,-4.49
19,C101U U106C A111C,-0.324
20,C13G A24G A27G C56G A111C,-7.83
21,C13G C94U,-1.78
22,C3A A5C C115A,1.15
23,C15G C22A G52C A119G,-5.02
24,A5U A68G C82G,-3.79

row,Variant,polymerase ribozyme fitness (log ratio)
1,G57U A83C G93C,-1.15
2,C34A G69C A111G,-5.23
3,C15U G58A C85A G113U,-5.84
4,C28G A46U,-3.8
5,C49G G77U,-1.25
6,G77C C104A U116G G122A,-5.01
7,C13U C49U U55G U92A,-4.11
8,A29C G52C C114U,-4.25
9,A5U G47A G113U,-3.72
10,G48U U55C,-1.53
11,A5G G51A C86G,-2.82
12,C11U A24U G65C A103C A108U A111U,-6.52
13,C62U C94U,-0.381
14,C4U C8A C12U C79G,-1.25
15,C8U C15G G63U U87A,-3.32
16,C72A U96A U109G,-6.14
17,C64G U112G,-6.14
18,G69A C104U G127A U129A,-2.62
19,C40A,-1.28
20,A18C C20U G36U C56G,-3.57
21,C15U A83G U87C,-2.34
22,G60A C98A,-4.29
23,A50U G60U G117U,-4.36
24,G48U U78C,-1.27

row,Variant,polymerase ribozyme fitness (log ratio)
1,C31G G35C A43G G110C,-7.68
2,A18U C124A U126A,-1.36
3,G69U C94A C101G G120U,-1.15
4,C11G C13G A111C A121G,0.62
5,C98U A121C U125A U129A,-1.75
6,G63U U92A U96A G113C,-3.99
7,G48U G60C C70U U78G,-5.9
8,C73A U132A,0.117
9,C12G G52U,-0.405
10,C31U A50U C53U C72U G93A C124U,-7.15
11,C73G C97U A118U,-1.07
12,A46U C62A,-2.13
13,A84U C97U,-0.894
14,A6G U14A C72U C88U G93A,-1.77
15,C13G U54G,-1.83
16,C8G C56A,0.399
17,A6G C31A G42U C53U A95U C101U C114U U126A,-5.71
18,C101A,-1.14
19,A50C G57U G69A G120A G127A,-3.95
20,G69A C115G,-3.93
21,G60C G113C,-2.72
22,C4U C101G,-2.06
23,C8G G19A G69U C79U A111G U129C U133A,-1.15
24,C49U A119U C123U,0.0952

row,Variant,polymerase ribozyme fitness (log ratio)
1,A46C C64A G69C C94A,-2.85
2,C15U G44U G63C A66U G117U G128A,-6.51
3,G60A C82U C85G U129A,-3
4,C53U A83C U87C,0.394
5,G19A G71A,-3.99
6,C8A A43U,-1.01
7,U9G G39U,-0.00423
8,C12A C82A,-0.699
9,C3U G17U G47A U96A U106A C115A U130G,-2.25
10,G52U C73G,-1.11
11,C12U A46C A75U,-0.187
12,C64G G120U,-6.39
13,G19C G42U C62U C76G U92G,-4.02
14,C8A C12U C13G G69A C98U,-4.08
15,U59A U81C U87A,-1.17
16,G17A U21A G39C C56U,-4.02
17,G58A C101G,-1.94
18,A18C A27G,-5.05
19,G10A C22U C34U C72A C115G A121C G122U,-8.04
20,C15A U32C,-1.58
21,A46G U54G C62G U78C C123U,-4.11
22,G45A G51A,-3.66
23,C11G C12G C79G C94U G117A U131A,-2.71
24,A37C G69U U96G U129A,-0.113

row,Variant,polymerase ribozyme fitness (log ratio)
1,G42U G71U,-2.08
2,U14C A46U G60C U116C G117A,-5.66
3,A50U C56U C64U U78C C85A U109A,-6.76
4,G17C G36A C114G G127A,-5.69
5,C11U G52A C80U,-2.45
6,C76U C88U,-0.561
7,G71C A103U C115A G117A,-5.57
8,A6C A108G U129G,-3.64
9,C73U A90G C124A,1.85
10,A5C A46U A83C C86G C114A G117A,-6.85
11,C28G G48A A83C A84C,-3.22
12,U9A G47U A50C,-1.68
13,C8G C20U G52U C62A,-2.37
14,U21A A29G,-1.38
15,G19A G77U,-2.96
16,C31G C62U A84G U87A G93U G120U,-6.9
17,C8A G113C,-1.59
18,A18C G19A C40U C49U A50U C89U C124U,-5.69
19,C13U A18G C49G G77U,-4.43
20,G19C G61C C88A,-4.49
21,A16C C82G G120C,-1.47
22,U33A A66G C123A,-6.2
23,C73A U78C A90C A91U U109G,-7.04
24,A2U C56A C64U G120C,-3.86

row,Variant,polymerase ribozyme fitness (log ratio)
1,G48C G93A A105C,-4.64
2,A75G U106G C124A,0.661
3,A16U G61C,-2.41
4,G39U U55A G71A C94G C102A G113U,-5.82
5,C76A,-0.611
6,C13A G61A C89A,-3.18
7,G36U C49U,-2.72
8,A16G G71C C124A U130A,0.62
9,G77A A95C,-0.839
10,G47A U78C,-1.09
11,C80A G113U,-4.78
12,C8A C12G G39C G63C U78G G117U,-2.3
13,G60A G110A U112C,-1.67
14,C4U C114A G128C,-4.42
15,C12A U54A C80G,-4.17
16,G44U C70U A111C C124U,-2.44
17,C13G A26G C49A U96A,-5.63
18,C53U C62U,-1.01
19,C15U A46C C70G,-4.3
20,C15A C64G C70A U92C G110C C115U G127U,-7.47
21,G93C U131A,-1.05
22,A6U A43U G63C G113U,-3.4
23,C11U C49U C101A,-2.29
